Assay results published in the supplement of paper PMC11908140.

B1: library; numbered along this chain (parent)
chain: MRKPRAAVGSGHRKQAASQEGRQKHAKNNSQAKPSACDGLARQPEEVVLQASVSSYHLFRDVAEVTAFRGSLLSWYDQEKRDLPWRRRAEDEMDLDRRAYAVWVSEVMLQQTQVATVINYYTGWMQKWPTLQDLASASLEEVNQLWAGLGYYSRGRRLQEGARKVVEELGGHMPRTAETLQQLLPGVGRYTAGAIASIAFGQATGVVDGNVARVLCRVRAIGADPSSTLVSQQLWGLAQQLVDPARPGDFNQAAMELGATVCTPQRPLCSQCPVESLCRARQRVEQEQLLASGSLSGSPDVEECAPNTGQCHLCLPPSEPWDQTLGVVNFPRKASRKPPREESSATCVLEQPGALGAQILLVQRPNSGLLAGLWEFPSVTWEPSEQLQRKALLQELQRWAGPLPATHLRHLGEVVHTFSHIKLTYQVYGLALEGQTPVTTVPPGARWLTQEEFHTAAVSTAMKKVFRVYQGQQPGTCMGSKRSQVSSPCSRKKPRMGQQVLDNFFRSHISTDAHSLNSAAQ

Variants of: B1
Test: 8OG:A repair function score (normalized; synonymous = 0, nonsense = -1) (normalized log-likelihood score); higher = more repair activity (WT-like)
Conditions: with 8OG:A DNA repair reporter (GFP) in HEK-293 MUTYH KO cells
Procedure, shortened: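 After 72 h, viable mCherry+ cells were split into GFP+ (repair) and GFP− bins in three replicates per tile. These cells were MUTYH knockout HEK-293 cells holding lentiviral MUTYH cDNA NNN codon-scan libraries, kept in 10 pg/ml doxycycline and co-transfected with mCherry plus an 8OG:A GFP repair reporter. Sequencing of tile amplicons gave per-tile Rosace fitness scores, normalized into a repair function score anchored on synonymous and nonsense distributions. Synonymous medians were fixed at 0, nonsense at -1, and variants under 300 counts per million at the start were removed.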
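Note: cells sorted at 72 h after reporter transfection.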

| Variant | 8OG:A repair function score |
| --- | --- |
| MRKPRAAVGSGHRKQAASQEGRQKHAKNNSQAKPSACDGLARQPEEVVSQASVSSYHLFRDVAEVTAFRGSLLSWYDQEKRDLPWRRRAEDEMDLDRRAYAVWVSEVMLQQTQVATVINYYTGWMQKWPTLQDLASASLEEVNQLWAGLGYYSRGRRLQEGARKVVEELGGHMPRTAETLQQLLPGVGRYTAGAIASIAFGQATGVVDGNVARVLCRVRAIGADPSSTLVSQQLWGLAQQLVDPARPGDFNQAAMELGATVCTPQRPLCSQCPVESLCRARQRVEQEQLLASGSLSGSPDVEECAPNTGQCHLCLPPSEPWDQTLGVVNFPRKASRKPPREESSATCVLEQPGALGAQILLVQRPNSGLLAGLWEFPSVTWEPSEQLQRKALLQELQRWAGPLPATHLRHLGEVVHTFSHIKLTYQVYGLALEGQTPVTTVPPGARWLTQEEFHTAAVSTAMKKVFRVYQGQQPGTCMGSKRSQVSSPCSRKKPRMGQQVLDNFFRSHISTDAHSLNSAAQ [L49S] | 0.027 |
| MRKPRAAVGSGHRKQAASQEGRQKHAKNNSQAKPSACDGLARQPEEVVLQASVSSYHLFRDVAEVTAFRGSLLSWYDQEKRDLPWRRRAEDEMDLDRRAYAVWVSEVMLQQTQVATVINYYTGWMQKWPTLQDLASASLEEVNQLWAGLGYYSRGRRLQEGARKVVEELGGHMPRTAETLQQLLPGVGRYTAGAIASIAFGQATGVVDGNVARVLCRVRAIGADPSSTLVSQQLWGLAQQLVDPARPGDFNQAAMELGATVCTPQRPLCSQCPVESLCRARQRVEQEQLLASGSLSGSPDVEECAPNTGQCHLCLPPSEPWDQTLGVVNFPRKASRKPPREESSATCVLEQPGALGAQILLVQRPNSGLLAGLWEFPSVTWEPSEQLQRKALLQELQRWAGPLPATHLRHLGEVVHTFSHIKLTYQVYGLAMEGQTPVTTVPPGARWLTQEEFHTAAVSTAMKKVFRVYQGQQPGTCMGSKRSQVSSPCSRKKPRMGQQVLDNFFRSHISTDAHSLNSAAQ [L432M] | -0.284 |
| MRKPRAAVGSGHRKQAASQEGRQKHAKNNSQAKPSACDGLARQPEEVVLQASVSSYHLFRDVAEVTAFRGSLLSWYDQEKRDLPWRRRAEDEMDLDRRAYAVWVSEVMLQQTQVATVINYYTGWMQKWPTLQDLASASLEEVNQLWAGLGYYSRGRRLQEGARKVVEELGGHMPRTAETLQQLLPGVGRYTAGAIASIAFGQATGVVDGNVARVLCRVRAIGADPSSTLVSQQLWGLAQQLVDPARPGDFNQAAMELGATVCTPQRPLCSQCPVESLCRARQRVEQEQLLASGSLSGSPDVEECAQNTGQCHLCLPPSEPWDQTLGVVNFPRKASRKPPREESSATCVLEQPGALGAQILLVQRPNSGLLAGLWEFPSVTWEPSEQLQRKALLQELQRWAGPLPATHLRHLGEVVHTFSHIKLTYQVYGLALEGQTPVTTVPPGARWLTQEEFHTAAVSTAMKKVFRVYQGQQPGTCMGSKRSQVSSPCSRKKPRMGQQVLDNFFRSHISTDAHSLNSAAQ [P306Q] | 0.0003 |
| MRKPRAAVGSGHRKQAASQEGRQKHAKNNSQAKPSACDGLARQPEEVVLQASVSSYHLFRDVAEVTAFRGSLLSWYDQEKRDLPWRRRAEDEMDLDRRAYAVWVSEVMLQQTQVATVINYYTGWMQKWPTLQDLASASLEEVNQLWAGLGYYSRGRRLQEGARKVVEELGGHMPRTAETLQQLLPGVGRYTAGAIASIAFGQATGVVDGNVARVLCRVRAIGADPSSTLVSQQLWGLAQQLVDPARPGDFNQAAMELGATVCTPQRTLCSQCPVESLCRARQRVEQEQLLASGSLSGSPDVEECAPNTGQCHLCLPPSEPWDQTLGVVNFPRKASRKPPREESSATCVLEQPGALGAQILLVQRPNSGLLAGLWEFPSVTWEPSEQLQRKALLQELQRWAGPLPATHLRHLGEVVHTFSHIKLTYQVYGLALEGQTPVTTVPPGARWLTQEEFHTAAVSTAMKKVFRVYQGQQPGTCMGSKRSQVSSPCSRKKPRMGQQVLDNFFRSHISTDAHSLNSAAQ [P267T] | -0.202 |
| MRKPRAAVGSGHRKQAASQEGRQKHAKNNSQAKPSACDGLARQPEEVVLQASVSSYHLFRDVAEVTAFRGSLLSWYDQEKRDLPWRRRAEDEMDLDRRAYAVWVSEVMLQQTQVATVINYYTGWMQKWPTLQDLASASLEEVNQLWAGLGYYSRGRRLQEGARKVVEELGGHMPRTAETLQQLLPGVGRYTAGAIASIAFGQATGVVDGNVARVLCRVRAIGADPSSTLVSQQLWGLAQQLVDPARPGDFNQAAMELGATVCTPQRPLCSQCPVESLCRARQRVEQEQLLASGSLSGSPDVEECAPNTGQCHLCLPPSEPWDQTLGVVNFPRKASRKPPREESSATCVLEQPGALGAQILLVQRPNSGLLAGLWEFPSVTWEPSEQLQRKALLQELQRWAGPLPATHLRHLGEVVHTFSHIKLTYQVYGLALEGQTPVTTVPPGARWLTQEEFHTAAVSTAMKKVFRVYQGQCPGTCMGSKRSQVSSPCSRKKPRMGQQVLDNFFRSHISTDAHSLNSAAQ [Q473C] | 6.68e-05 |
| MRKPRAAVGSGHRKQAASQEGRQKHAKNNSQAKPSACDGLARQPEEVVLQASVSSYHLFRDVAEVTAFRGSLLSWYDQEKRDLPWRRRAEDEMDLDRRAYAVWVSEVMLQQTQVATVINYYTGWMQKWPTLQDLASASLEEVNQLWAGLGYYSRGRRLQEGARKVVEELGGHMPRTAETLQQLLPGVGRYTAGAIASIAFGQATGVVDGNVARVLCRVRAIGADPSSTLVSQQLWGLAQQLVDPARPGDFNQAAMELGATVCTPQRPLCSQCPVESLCRARQRVEQEQLLASGSLSGSPDVEECAPNTGQCHLCLPPSEPWDQTLGVVNFPRKASRKPPREESSATCSLEQPGALGAQILLVQRPNSGLLAGLWEFPSVTWEPSEQLQRKALLQELQRWAGPLPATHLRHLGEVVHTFSHIKLTYQVYGLALEGQTPVTTVPPGARWLTQEEFHTAAVSTAMKKVFRVYQGQQPGTCMGSKRSQVSSPCSRKKPRMGQQVLDNFFRSHISTDAHSLNSAAQ [V348S] | -1.25 |
